± gives the uncertainty stated by the source.
B1: Protein maelstrom homolog, residues 3 to 71; numbered along this chain, Q96JY0 (parent)
chain: NRKASRNAYYFFVQEKIPELRRRGLPVARVADAIPYCSSDWALLREEEKEKYAEMAREWRAAQGKDPGP

Variants of: B1
Assay: abundance fitness (aPCA) (normalised: wild type 0, dead -1); higher = more abundant; growth selection in yeast, the domain comes from the species named
Conditions: Homo sapiens

Variant | abundance fitness
NRKASRNAYYFFVQEKIPELRRRGLPVARVADAIPYCSSDWALLREEEKEKYAEMAREWRAAQGKDFGP [P67F] | -0.101 ± 0.083
NRKASRNAYYFFVQEKIPELRRRGLPVARVADAIPYCSSDWALLREEEKEKYAEMAREWRAAQGKDVGP [P67V] | 0.091 ± 0.073
NRKASRNAYYFFVQEKIPELRRRGLPVARVADAIPYCSSDWALLREEEKEKYAEMAREWRAAQGKDHGP [P67H] | 0.024 ± 0.11
NRKASRNAYYFFVQEKIPELRRRGLPVARVADAIPYCSSDWALLREEEKEKYAEMAREWRAAQGKDDGP [P67D] | -0.43 ± 0.18
NRKASRNAYYFFVQEKIPELRRRGLPVARVADAIPYCSSDWALLREEEKEKYAEMAREWRAAQGKDNGP [P67N] | -0.105 ± 0.23
NRKASRNAYYFFVQEKIPELRRRGLPVARVADAIPYCSSDWALLREEEKEKYAEMAREWRAAQGKDMGP [P67M] | -0.12 ± 0.09
NRKASRNAYYFFVQEKIPELRRRGLPVARVADAIPYCSSDWALLREEEKEKYAEMAREWRAAQGKDEGP [P67E] | -0.046 ± 0.084
NRKASRNAYYFFVQEKIPELRRRGLPVARVADAIPYCSSDWALLREEEKEKYAEMAREWRAAQGKDAGP [P67A] | -0.098 ± 0.069
NRKASRNAYYFFVQEKIPELRRRGLPVARVADAIPYCSSDWALLREEEKEKYAEMAREWRAAQGKDTGP [P67T] | -0.155 ± 0.078
NRKASRNAYYFFVQEKIPELRRRGLPVARVADAIPYCSSDWALLREEEKEKYAEMAREWRAAQGKDRGP [P67R] | 0.118 ± 0.047
NRKASRNAYYFFVQEKIPELRRRGLPVARVADAIPYCSSDWALLREEEKEKYAEMAREWRAAQGKDLGP [P67L] | 0.022 ± 0.056
NRKASRNAYYFFVQEKIPELRRRGLPVARVADAIPYCSSDWALLREEEKEKYAEMAREWRAAQGKDKGP [P67K] | -0.069 ± 0.14
NRKASRNAYYFFVQEKIPELRRRGLPVARVADAIPYCSSDWALLREEEKEKYAEMAREWRAAQGKDGGP [P67G] | 0.009 ± 0.048
NRKASRNAYYFFVQEKIPELRRRGLPVARVADAIPYCSSDWALLREEEKEKYAEMAREWRAAQGKDWGP [P67W] | -0.263 ± 0.07
NRKASRNAYYFFVQEKIPELRRRGLPVARVADAIPYCSSDWALLREEEKEKYAEMAREWRAAQGKDSGP [P67S] | -0.067 ± 0.065
NRKASRNAYYFFVQEKIPELRRRGLPVARVADAIPYCSSDWALLREEEKEKYAEMAREWRAAQGKDCGP [P67C] | -0.417 ± 0.18
NRKASRNAYYFFVQEKIPELRRRGLPVARVADAIPYCSSDWALLREEEKEKYAEMAREWRAAQGKYPGP [D66Y] | -0.095 ± 0.072
NRKASRNAYYFFVQEKIPELRRRGLPVARVADAIPYCSSDWALLREEEKEKYAEMAREWRAAQGKRPGP [D66R] | -0.02 ± 0.061
NRKASRNAYYFFVQEKIPELRRRGLPVARVADAIPYCSSDWALLREEEKEKYAEMAREWRAAQGKFPGP [D66F] | -0.116 ± 0.073
NRKASRNAYYFFVQEKIPELRRRGLPVARVADAIPYCSSDWALLREEEKEKYAEMAREWRAAQGKWPGP [D66W] | -0.155 ± 0.092

Variant | abundance fitness
NRKASRNAYYFFVQEKIPELRRRGLPVARVADAIPYCSSDWALLREEEKEKYAEMAREWRAAQGKSPGP [D66S] | -0.042 ± 0.065
NRKASRNAYYFFVQEKIPELRRRGLPVARVADAIPYCSSDWALLREEEKEKYAEMAREWRAAQGKHPGP [D66H] | 0.122 ± 0.097
NRKASRNAYYFFVQEKIPELRRRGLPVARVADAIPYCSSDWALLREEEKEKYAEMAREWRAAQGKLPGP [D66L] | 0.047 ± 0.049
NRKASRNAYYFFVQEKIPELRRRGLPVARVADAIPYCSSDWALLREEEKEKYAEMAREWRAAQGKMPGP [D66M] | 0.051 ± 0.072
NRKASRNAYYFFVQEKIPELRRRGLPVARVADAIPYCSSDWALLREEEKEKYAEMAREWRAAQGKVPGP [D66V] | 0.018 ± 0.049
NRKASRNAYYFFVQEKIPELRRRGLPVARVADAIPYCSSDWALLREEEKEKYAEMAREWRAAQGKIPGP [D66I] | 0.024 ± 0.094
NRKASRNAYYFFVQEKIPELRRRGLPVARVADAIPYCSSDWALLREEEKEKYAEMAREWRAAQGKQPGP [D66Q] | 0.07 ± 0.07
NRKASRNAYYFFVQEKIPELRRRGLPVARVADAIPYCSSDWALLREEEKEKYAEMAREWRAAQGKPPGP [D66P] | -0.052 ± 0.17
NRKASRNAYYFFVQEKIPELRRRGLPVARVADAIPYCSSDWALLREEEKEKYAEMAREWRAAQGKTPGP [D66T] | 0.173 ± 0.12
NRKASRNAYYFFVQEKIPELRRRGLPVARVADAIPYCSSDWALLREEEKEKYAEMAREWRAAQGKKPGP [D66K] | 0.171 ± 0.067
NRKASRNAYYFFVQEKIPELRRRGLPVARVADAIPYCSSDWALLREEEKEKYAEMAREWRAAQGKDPDP [G68D] | -0.083 ± 0.087
NRKASRNAYYFFVQEKIPELRRRGLPVARVADAIPYCSSDWALLREEEKEKYAEMAREWRAAQGKDPCP [G68C] | -0.12 ± 0.17
NRKASRNAYYFFVQEKIPELRRRGLPVARVADAIPYCSSDWALLREEEKEKYAEMAREWRAAQGKDPKP [G68K] | -0.025 ± 0.11
NRKASRNAYYFFVQEKIPELRRRGLPVARVADAIPYCSSDWALLREEEKEKYAEMAREWRAAQGKDPAP [G68A] | -0.139 ± 0.1
NRKASRNAYYFFVQEKIPELRRRGLPVARVADAIPYCSSDWALLREEEKEKYAEMAREWRAAQGKDPIP [G68I] | -0.296 ± 0.15
NRKASRNAYYFFVQEKIPELRRRGLPVARVADAIPYCSSDWALLREEEKEKYAEMAREWRAAQGKDPEP [G68E] | 0.014 ± 0.068
NRKASRNAYYFFVQEKIPELRRRGLPVARVADAIPYCSSDWALLREEEKEKYAEMAREWRAAQGKDPHP [G68H] | 0.038 ± 0.18
NRKASRNAYYFFVQEKIPELRRRGLPVARVADAIPYCSSDWALLREEEKEKYAEMAREWRAAQGKDPFP [G68F] | -0.119 ± 0.14
NRKASRNAYYFFVQEKIPELRRRGLPVARVADAIPYCSSDWALLREEEKEKYAEMAREWRAAQGKDPLP [G68L] | -0.309 ± 0.06
